Reference: PMC4623604, “Discovery of Small Molecules that Inhibit the Disordered Protein, p27^Kip1” (Scientific Reports, 2015)
Where no end group is shown, it is not given here.

Target: Cdk2/cyclin A complex (human, UniProt P24941 1-298; P20248 173-432)
Assay: fluorescence polarisation; fluorescence anisotropy; Cdk2/cyclin A binding to p27-D2-FL (20 nM); 25 °C; 20 mM Na phosphate, pH 7, 200 mM NaCl, 3.5 mM TCEP; non-linear regression on the average of three experiments
Conditions: both partners purified

B1: p27-D2-FL (p27-D2-C99S-R93C labeled with Alexa Fluor 488) (domain or fragment)
chain: RKWNFDFQNHKPLEGKYEWQEVEKGSLPEFYYRPPC(Alexa Fluor 488 C5‑maleimide)PPKGASKVPAQE
notes: p27Kip1 (p27; CDKN1B), human, D2 sub-domain construct, residues 58-105; Cloned in pET28a; also called single-cysteine mutant of p27-D2; source: conjugated with Alexa Fluor488-C5-Maleimide and purified again by HPLC; not shown: 6xHis, N-terminal, cleaved
For B1, the Kd was 73 ± 8 nM.
